# B1: RPS2^ΔN26 (domain or fragment, Arabidopsis thaliana, UniProt Q42484 27-909, looked up)
# chain: HKTDLRQAITDLETAIGDLKAIRDDLTLRIQQDGLEGRSCSNRAREWLSAVQVTETKTALLLVRFRRREQRTRMRRRYLSCFGCADYKLCKKVSAILKSIGELRERSEAIKTDGGSIQVTCREIPIKSVVGNTTMMEQVLEFLSEEEERGIIGVYGPGGVGKTTLMQSINNELITKGHQYDVLIWVQMSREFGECTIQQAVGARLGLSWDEKETGENRALKIYRALRQKRFLLLLDDVWEEIDLEKTGVPRPDRENKCKVMFTTRSIALCNNMGAEYKLRVEFLEKKHAWELFCSKVWRKDLLESSSIRRLAEIIVSKCGGLPLALITLGGAMAHRETEEEWIHASEVLTRFPAEMKGMNYVFALLKFSYDNLESDLLRSCFLYCALFPEEHSIEIEQLVEYWVGEGFLTSSHGVNTIYKGYFLIGDLKAACLLETGDEKTQVKMHNVVRSFALWMASEQGTYKELILVEPSMGHTEAPKAENWRQALVISLLDNRIQTLPEKLICPKLTTLMLQQNSSLKKIPTGFFMHMPVLRVLDLSFTSITEIPLSIKYLVELYHLSMSGTKISVLPQELGNLRKLKHLDLQRTQFLQTIPRDAICWLSKLEVLNLYYSYAGWELQSFGEDEAEELGFADLEYLENLTTLGITVLSLETLKTLFEFGALHKHIQHLHVEECNELLYFNLPSLTNHGRNLRRLSIKSCHDLEYLVTPADFENDWLPSLEVLTLHSLHNLTRVWGNSVSQDCLRNIRCINISHCNKLKNVSWVQKLPKLEVIELFDCREIEELISEHESPSVEDPTLFPSLKTLRTRDLPELNSILPSRFSFQKVETLVITNCPRVKKLPFQERRTQMNLPTVYCEEKWWKALEKDQPNEELCYLPRFVPN
# Molecular target: the molecule itself
# Test: negative stain EM
protein,measurement,value
B1,stoichiometry N,8
